For data set [1], the system named is NPC1-deficient, NPC2-deficient, apparently normal, and U18666A-treated normal cells. Briefly: GC/MS measurement of total free cholesterol. Type of data set: cell-based, human. The settings on record: normal cells treated with 1 μM U18666A. On the procedure: FIGS. […]. Charts showing GC/MS measurement of cyclodextrin effects on total free cholesterol levels in NPC1-deficient, NPC2-deficient, apparently normal, and U18666A-treated normal cells. […] Cells were treated with 0.9 mM MβCD or HPβCD for 1 day in growth medium. At the end of the experiment, cellular lipids were extracted and analyzed by GC/MS. Data represent averages±SEM of two independent experiments normalized to control average value for each experiment.

Data set [2] has as its system U18666A-treated GM05659 cells. Briefly: LSO filipin assay in U18666A-treated apparently normal fibroblasts. The following applies: GM05659 treated with various concentrations of U18666A (FIG. 14A).
Method: Cells were plated in 384-well assay plates at a density to produce ≈80-90% confluency by experiment completion and treated with U18666A at indicated concentrations for 24 hour before addition of various concentrations of either MβCD or HPβCD for another 24 hours, during which indicated U18666A levels were maintained. At the end of the experiment, cells were fixed with 1% PFA and stained with 50 μg/mL filipin. Images were acquired using an ImageXpressMICRO imaging system with a 10× objective. […] (A) Cholesterol accumulation, as measured by the LSO filipin assay, at different concentrations of U18666A. MβCD (B) and HPβCD (C) LSO filipin dose-response curves at three different U18666A concentrations. […] Data represent averages±SEM of two independent experiments (n=12 for control and n=6 for treated, where n is total number of wells per condition used for quantification).
Data set [3] deals with WT Fbs (GM05659). Nature of the data set: Acid SMase activity assay after rhASM, wild-type fibroblasts. The settings on record: 24 hours. The data set is classed as cell-based, human. The procedure:
(§1) FIG. 29 A,B. Decreased LSO cholesterol accumulation and increased acid SMase activity are achieved in NPC1 human fibroblasts by increasing amounts of rhASM. WT (GM5659) and NPC (GM03123) Fbs were incubated with 0, 0.2 and 1.8 μg/mL rhASM for 24 hours. To remove surface-bound label, the cells were further incubated for 15 minutes with growth medium without the enzyme. The cells were washed thoroughly with PBS and either lysed and assayed for acid SMase activity (A) or fixed and stained with filipin for imaging and quantification (B). Each data point in plot (A) is representative of three wells in an experiment, p<0.05. Plot (B) represents LSO ratios normalized to the untreated NPC Fb […] values (average of 16-20 images from two independent experiments±SEM), p<0.005.
Cell extracts were prepared by scraping cells into ice-cold 250 mM sucrose, followed by sonication on ice twice for 10 seconds each using a Branson Sonifier 450. To prepare the substrate, solvent from 0.1 μCi [cholinemethyl-^14C] […] The assay solution, which was added to 1.5-mL microcentrifuge tubes on ice, consisted of 50 μL assay buffer, 20 μL substrate and 20 μL of cell extract. After incubation for 60 minutes at 37° C., the reaction was terminated by adding 125 μL of chloroform:methanol (2:1, v/v). The assay tubes were vortexed for 1 minute and then centrifuged 5000×g for 5 minutes at 4° C. […]

Data set [4] concerns NPC (GM03123) Fbs. Nature of the data set: Acid SMase activity assay after rhASM, NPC fibroblasts. The data set is classed as cell-based, human. The procedure: as §1
Cell extracts were prepared by scraping cells into ice-cold 250 mM sucrose, followed by sonication on ice twice for 10 seconds each using a Branson Sonifier 450. […]
(§2) Normal (GM05659) and NPC1 human fibroblasts (GM03123) were incubated in a medium containing 3 μg/mL recombinant human acid SMase (rhASM). Two days later, the cells were washed thoroughly with PBS, and either lysed and assayed for acid SMase activity or fixed and stained with filipin for imaging and quantification. NPC1 human fibroblasts GM18453 were treated with 3 μg/mL rhASM for 24 h before fixing, staining with filipin, imaging and quantifying.

The test system of data set [5] is WT Fbs (GM05659). Briefly: rhASM, LSO filipin quantification in wild-type fibroblasts. The following applies: all doses of rhASM tested (0, 0.2, 1.8 μg/mL). Type of data set: cell-based, human. The procedure:
as §1
Cells were plated onto poly-d-lysine-coated 35-mm coverslip dishes in a medium containing 10% FBS. […]
Images were analyzed using Metamorph (version 7.0 r4) image analysis software from Molecular Devices (MDS Analytical Technologies). […] The average filipin and LSO ratio was calculated as described previously (Pipalia 2006). The LSO ratio was calculated based on low-thresholded region and high-thresholded intensities in the filipin image as described previously (Pipalia 2006).

Data set [6] concerns NPC (GM03123) Fbs. Briefly: rhASM enzyme replacement, LSO filipin quantification in NPC fibroblasts. Type of data set: cell-based, human. The procedure: FIGS. 27 A-C. Graph showing the effect of SMase restoration on human NPC1 cells (exogenous acid SMase decreases cholesterol accumulation in LSOs in human NPC fibroblasts). Parallel sets of human WT (GM05659) and NPC (GM03123) Fbs were incubated in medium alone or, in the case of the NPC fibroblasts, medium containing 3 μg/mL recombinant human acid SMase (rhASM). Two days later, the cells were washed thoroughly with PBS and either lysed and assayed for acid SMase activity (A), or fixed and stained with filipin for imaging and quantification (B). […] Scale bar, 15 μm. The quantified data in the bar graph represent LSO ratios normalized to the WT Fb values (average of 60-66 images from three independent experiments±SEM). C) Another human NPC Fbs (GM18453) was incubated with 3 μg/mL rhASM for 24 h, unlike 48 h in NPC1 (GM03123). Quantified data shown in bar chart are the normalized LSO ratios (normalized to untreated NPC Fbs) in the presence and absence of recombinant enzyme. Data represents an average from two independent experiments and 30-36 images±SEM, p<0.0001.
as §1, §2
Cells were plated onto poly-d-lysine-coated 35-mm coverslip dishes in a medium containing 10% FBS. After 1-2 days of growth, the cell monolayers were washed three times with PBS and then fixed with 3% paraformaldehyde in PBS for 20 minutes at room temperature, followed by three more washes with PBS. To detect free cholesterol, filipin was added to the fixed cells (50 μg/mL in PBS) for 45 minutes at room temperature. Finally, the cells were washed three times with PBS, and images were acquired immediately after labeling.
Images were analyzed using Metamorph (version 7.0 r4) image analysis software from Molecular Devices (MDS Analytical Technologies). All images were corrected for background before analysis. The average filipin and LSO ratio was calculated as described previously (Pipalia 2006). The LSO ratio was calculated based on low-thresholded region and high-thresholded intensities in the filipin image as described previously (Pipalia 2006).

The subject of data set [7] is WT (GM05659) and NPC (GM03123) human fibroblasts. Nature of the data set: Sub-cellular localization and uptake of Alexa555-conjugated rhASM. The data set is classed as cell-based. The settings on record: data not shown. On the procedure:
WT (GM5659) and NPC (GM03123) Fbs were incubated with or without 3 μg/mL Alexa555-conjugated rhASM for 24 hours. To remove surface-bound label, the cells were further incubated for 15 min with a growth medium without the enzyme. Finally, the cells were washed with PBS, fixed with 1.5% PFA, and stained with filipin for imaging and quantification. […] Color overlays for filipin (green) and rhASM-Alexa555 (red) are shown in panels (C, F and I). The images in the inset are the zoomed color overlays of the region marked in (C, F and I). Scale bar=10 μm.
For identifying the localization of rhASM in the cells, recombinant enzyme was conjugated with Alexa555 (Invitrogen) according to the manufacturer's protocol. Normal (GM05659) and NPC1 human fibroblasts (GM03123) were incubated in a medium containing 3 μg/mL Alexa555-rhASM for 24 h prior to fixing and staining with filipin. Images were acquired using standard UV and TRITC filters for filipin and Alexa555-labeled rhASM, and quantified.
To ascertain whether exogenously added rhASM was localized and processed in late endosomal organelles, WT (GM05659) and NPC (GM03123) human fibroblasts were incubated for 24 hours in the absence or presence of 3 μg/mL of Alexa555-labeled rhASM. […] The cells were then washed, fixed and stained with filipin for imaging and quantification. […]

Experimental findings from patent publication US10124019B2, “Compositions and their use for removing cholesterol” (Cornell University, priority 2009, dated 2018) are described below.

On to `CCN(CC)CCO[C@H]1CC[C@@]2(C)C(=CC[C@@H]3[C@@H]2CC[C@]2(C)C(=O)CC[C@@H]32)C1` [U18666A, 3-β-[(2-diethyl-amino)ethoxy]androst-5-en-17-one], for which, in data set [1], the “free cholesterol per μg cell protein” value was found to be 0.074 ± 0.006 pmol/µg. In addition, the “extent of cholesterol accumulation in LSOs” value in data set [2] is “dose dependent”.

B1: rhASM: Recombinant human acid SMase prepared from transfected CHO cells (protein, UniProt P17405 47-631, looked up)
Sphingomyelin …: LALSDSRVLWAPAEAHPLSPQGHPARLHRIVPRLRDVFGWGNLTCPICKGLFTAINLGLKKEPNVARVGSVAIKLCNLLKIAPPAVCQSIVHLFEDDMVEVWRRSVLSPSEACGLLLGSTCGHWDIFSSWNISLPTVPKPPPKPPSPPAPGAPVSRILFLTDLHWDHDYLEGTDPDCADPLCCRRGSGLPPASRPGAGYWGEYSKCDLPLRTLESLLSGLGPAGPFDMVYWTGDIPAHDVWHQTRQDQLRALTTVTALVRKFLGPVPVYPAVGNHESTPVNSFPPPFIEGNHSSRWLYEAMAKAWEPWLPAEALRTLRIGGFYALSPYPGLRLISLNMNFCSRENFWLLINSTDPAGQLQWLVGELQAAEDRGDKVHIIGHIPPGHCLKSWSWNYYRIVARYENTLAAQFFGHTHVDEFEVFYDEETLSRPLAVAFLAPSATTYIGLNPGYRVYQIDGNYSGSSHVVLDHETYILNLTQANIPGAIPHWQLLYRARETYGLPNTLPTAWHNLVYRMRGDMQLFQTFWFLYHKGHPPSEPCGTPCRLATLCAQLSARADSPALCRHLMPDGSLPEAQSLWPRPLFC
As to B1, the “acid SMase activity” value is reported as “increased slightly” in data set [3] (0.2 μg/mL rhASM); “did not increase further” in data set [3] (1.8 μg/mL rhASM); “increased acid SMase activity significantly” in data set [4] (0.2 μg/mL rhASM, 24 hours). Besides, the “defect in acid SMase activity” value in data set [4] (3 μg/mL rhASM, two days (FIG. 27A)) is reported as “corrected”. Further, in data set [5], the LSO filipin staining result was “remained low and constant”. Besides, the “decrease in LSO filipin intensity” value in data set [6] (0.2 μg/mL rhASM, 24 hours) is recorded as approximately 20%; in data set [6] (3 μg/mL rhASM (FIG. 27)) it was 65-70%. Moreover, the “reduction of LSO filipin intensity” value in data set [6] (1.8 μg/mL rhASM, 24 hours) is on record as approximately 60%. Also, the LSO filipin fluorescence entry in data set [6] (3 μg/mL rhASM, two days (FIG. 27B)) is listed as “dramatically decreased LSO filipin fluorescence”. The residual cholesterol accumulation in data set [6] (excess acid SMase, NPC1 cells) was 25-30%.

B2: rhASM-Alexa555: recombinant enzyme conjugated with Alexa555 (conjugate, UniProt P17405 47-631, looked up)
Sphingomyelin …: LALSDSRVLWAPAEAHPLSPQGHPARLHRIVPRLRDVFGWGNLTCPICKGLFTAINLGLKKEPNVARVGSVAIKLCNLLKIAPPAVCQSIVHLFEDDMVEVWRRSVLSPSEACGLLLGSTCGHWDIFSSWNISLPTVPKPPPKPPSPPAPGAPVSRILFLTDLHWDHDYLEGTDPDCADPLCCRRGSGLPPASRPGAGYWGEYSKCDLPLRTLESLLSGLGPAGPFDMVYWTGDIPAHDVWHQTRQDQLRALTTVTALVRKFLGPVPVYPAVGNHESTPVNSFPPPFIEGNHSSRWLYEAMAKAWEPWLPAEALRTLRIGGFYALSPYPGLRLISLNMNFCSRENFWLLINSTDPAGQLQWLVGELQAAEDRGDKVHIIGHIPPGHCLKSWSWNYYRIVARYENTLAAQFFGHTHVDEFEVFYDEETLSRPLAVAFLAPSATTYIGLNPGYRVYQIDGNYSGSSHVVLDHETYILNLTQANIPGAIPHWQLLYRARETYGLPNTLPTAWHNLVYRMRGDMQLFQTFWFLYHKGHPPSEPCGTPCRLATLCAQLSARADSPALCRHLMPDGSLPEAQSLWPRPLFC
modifications: Alexa555 label
Consider B2, for which the “effect of Alexa555 conjugation on enzyme activity” value in data set [7] was “did not affect its activity”.
